Assay results from IntAct's records for PubMed 9341158.

B1: AP-2 complex subunit mu (Rattus norvegicus (Rat)), P84092 (parent)
chain: MIGGLFIYNHKGEVLISRVYRDDIGRNAVDAFRVNVIHARQQVRSPVTNIARTSFFHVKRSNIWLAAVTKQNVNAAMVFEFLYKMCDVMAAYFGKISEENIKNNFVLIYELLDEILDFGYPQNSETGALKTFITQQGIKSQHQTKEEQSQITSQVTGQIGWRREGIKYRRNELFLDVLESVNLLMSPQGQVLSAHVSGRVVMKSYLSGMPECKFGMNDKIVIEKQGKGTADETSKSGKQSIAIDDCTFHQCVRLSKFDSERSISFIPPDGEFELMRYRTTKDIILPFRVIPLVREVGRTKLEVKVVIKSNFKPSLLAQKIEVRIPTPLNTSGVQVICMKGKAKYKASENAIVWKIKRMAGMKESQISAEIELLPTNDKKKWARPPISMNFEVPFAPSGLKVRYLKVFEPKLNYSDHDVIKWVRYIGRSGIYETRC

Variants of: B1
Conditions: with ap2b1_human AP2B1, P63010
Chain of ap2b1_human AP2B1, P63010 (P63010 whole entry): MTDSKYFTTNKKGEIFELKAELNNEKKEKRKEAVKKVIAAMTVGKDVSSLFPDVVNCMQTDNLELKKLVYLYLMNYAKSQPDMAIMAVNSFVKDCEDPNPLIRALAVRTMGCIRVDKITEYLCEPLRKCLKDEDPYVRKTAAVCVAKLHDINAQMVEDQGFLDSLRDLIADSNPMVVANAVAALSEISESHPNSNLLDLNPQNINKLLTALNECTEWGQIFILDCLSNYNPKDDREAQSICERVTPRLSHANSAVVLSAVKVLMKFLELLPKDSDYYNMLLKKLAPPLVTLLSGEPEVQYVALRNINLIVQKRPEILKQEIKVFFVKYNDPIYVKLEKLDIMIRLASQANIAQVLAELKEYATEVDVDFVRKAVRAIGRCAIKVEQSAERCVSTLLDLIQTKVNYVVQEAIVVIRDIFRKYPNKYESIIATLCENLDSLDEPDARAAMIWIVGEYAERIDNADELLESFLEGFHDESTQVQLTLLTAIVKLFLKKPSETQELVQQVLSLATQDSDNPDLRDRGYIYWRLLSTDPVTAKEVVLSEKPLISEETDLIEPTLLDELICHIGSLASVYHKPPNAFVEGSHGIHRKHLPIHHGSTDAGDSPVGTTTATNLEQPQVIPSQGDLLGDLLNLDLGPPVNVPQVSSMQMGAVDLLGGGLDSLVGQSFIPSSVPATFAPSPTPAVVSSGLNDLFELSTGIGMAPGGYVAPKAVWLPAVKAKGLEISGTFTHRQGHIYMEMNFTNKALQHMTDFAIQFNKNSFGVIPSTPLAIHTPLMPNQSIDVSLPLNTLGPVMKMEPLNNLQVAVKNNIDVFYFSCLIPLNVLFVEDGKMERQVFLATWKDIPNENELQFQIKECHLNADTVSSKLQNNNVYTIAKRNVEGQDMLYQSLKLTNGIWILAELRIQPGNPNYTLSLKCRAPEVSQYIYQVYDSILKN

Row | effect of a mutation on the interaction | Variant
1 | decreasing interaction | Y83A
2 | decreasing interaction | I96A
3 | decreasing interaction | L82A

Variants of: B1
Conditions: with tgon3_rat Ttgn1, P19814
Chain of tgon3_rat Ttgn1, P19814 (P19814 whole entry): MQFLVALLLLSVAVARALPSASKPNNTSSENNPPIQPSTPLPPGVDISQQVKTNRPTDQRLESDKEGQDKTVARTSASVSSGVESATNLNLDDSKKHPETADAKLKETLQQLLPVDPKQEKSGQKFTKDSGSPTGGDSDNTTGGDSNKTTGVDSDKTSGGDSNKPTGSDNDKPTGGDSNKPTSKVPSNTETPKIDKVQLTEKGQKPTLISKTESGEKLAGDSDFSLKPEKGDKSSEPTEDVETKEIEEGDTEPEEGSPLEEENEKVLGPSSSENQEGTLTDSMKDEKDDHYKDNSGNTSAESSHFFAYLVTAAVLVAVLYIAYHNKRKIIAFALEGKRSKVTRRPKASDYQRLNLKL

Row | effect of a mutation on the interaction | Variant
4 | decreasing interaction | D269A
5 | decreasing interaction | G270A
6 | decreasing interaction | F265A
7 | decreasing interaction | M209A
